{
  "source": "paper PMC4370877",
  "molecular_target": "recombinant Small basic protein (rSbp) (S. epidermidis)",
  "assay": "ELISA; competition; rSbp (150 μg/ml in PBS) pre-incubated with soluble rDomain-B (0.4-100 μg/ml) for 1 h at 4°C, then loaded into rDomain-B-coated wells; inhibition = (1 - A405 with rDomain-B / A405 without) x 100",
  "data": [
    {"substance": "recombinantly expressed Aap domain-B (rDomain-B) (domain or fragment)", "values": [
      {"measurement": "percent inhibition of rSbp binding to immobilized rDomain-B", "value": 80, "unit": "%"}
    ]}
  ]
}
